These results are taken from a protein production outcome set (Wang et al. 2014).

This data set is described as follows: label from the status in PepcDB records.

With “PGMLYEFCLKPDGTMTFPYVSSGCLELIECSPQELQDDASLTFASTYPEDIIGLQEAIANSAKTLQNFEHEWRIITSSGQLKWVKGASRPERKPGGEITWYGYLLDVSEQQAALRERKQADQQLQQQAQLLQSIWEGVD”, the protein production result is listed as “failed”. To “PIKQSFLLKRSGNSLNKEWKKKYVTLSSNGFLLYHPSINDYIHSTHGKEMDLLRTTVKVPGKRPPRAISAFGPSASINGLVKDMSTVQMGEGLEATTPMPSPSPSPSSLQPPPDQTSKHLL” belongs “failed”; to “PKAPVTGYVRFLNERREQIRTRHPDLPFPEITKMLGAEWSKLQPAEKQRYLDEAEKEKQQYLKELWAYQQSEAYKVCTE”, “not failed”; to “PKIAGIDLGTTYSSIGIYHAVTGETIILPDDLGKKSVPSVVAFLPNGTVLIGTRATEQQEHNPKRTIYDAKRFIGRNFEKNNKDFLSDQKRYPFKINLDSEGKAFFEIPLDSGTKNVYPEEIGSLIIGYLKSAAAKHLGVTLGQVVISCPAEFNEKQRNFTAKAAEIAEMEVRRVISEPTAAALAYGLHKKQGVENVVVVDLGGGTLDVSVLWLQGGVFVTQAMAGNNRLGGQDFNDRVQKHLISKIAEKFGKTIDNKEDIQQIRMEVEKGKIRLTNVPSTTISLNLKTVGKWNYELTRDEFETLNGDLLKAIELPITAALADANLDTADVDEIVLVGGSTQVPAVRKIVGRFFKKSANYGVDPELAVVTGASVQAGVIGGGWPLQVAAMELPAKRRKRHFFTEEQKENEKDRTISEL”, “not failed”. For “PKTGPTMTKELVFSSNIGQHDLDTKSKQIQQWIEKKYHVQVTIKRRKDAEQSEEETEEIFNQILQTMPDIATFSSRPKAIRGGTASMCVFRHLSKKEEK”, the protein production result was “not failed”.

In the case of “PLAGTITEADVRRYAASCCVQGVTTITDLHNDLADPTIEVYRSATSQADFGVRLVPALAAVSHTPEQAIAKLETLRGHASDKLHYGIVKLVVDGSIQGFTARLRWPGYHNGAANGLWYIAPEELPRLVEAYHRAGVQLHIHTNGDEATEVALDAIEAAQTVAPRPDHRHTLQHCQMASAAQFRRMKNLGVCANLFANHLYYWGDAHYELTMGPERAARLDATGTAQRIGVPFAIHSDAPVTPLAPLFTAWCAVNRVSSSGRVLGRDTEALTTEQALAAITIGAAYTLKMDHLVGSIETGKYADFVVLDEDPLAVPPERLKEIAVWGTVVGG”, the protein production result is “failed”. For “PLLTEEALFGEDRHVLGEKGVVVRVFSDFQCPYCQRLAREVLPALKAMAREGRLRLAYRHFPLYEIHPEAVPAAVASECAAAQGAFWAYHDLLMAGSGWDYPALARRLGLDPKAFQACLEDPASRAPVEADRALAERLGLPGTPSVFVGPFRLPNPFDLERYRDYLALAEAL”, the protein production entry is on record as “failed”. To “PLNRLGHKIYQHSGKWLQETAAEKLNQRDQLINPGHAQVLILGMGRIGTGAYDELRARYGKISLGIEIREEAAQQHRSEGRNVISGDATDPDFWERILDTGHVKLVLLAMPHHQGNQTALEQLQRRNYKGQIAAIAEYPDQLEGLLESGVDAAFNIYSEAGSGFARHVCKQLEPQFTSIK” belongs “not failed”; to “PLPPPRALTLAAVTPRTVHLTWQPSAGATHYLVRCSPASPKGEEEEREVQVGRPEVLLDGLEPGRDYEVSVQSLRGPEGSEARGIRARTPT”, “not failed”. Consider “PLQFHSVHGDNIRISRDGTLARRFESFCRAITFSARPVRINERICVKFAEISNNWNGGIRFGFTSNDPVTLEGTLPKYACPDLTNRPGFWAKALHEQYCEKDNILYYYVNGAGDVIYGINNEEKGVILTGIDTRSLLWTVIDIYGNCTGIEFLDSRIYMYQ”, for which the protein production result was “not failed”. On to “PMVLVVLDHDGNRLKKGSLEALTRARDLAQALGGKVAGVLLAEEKAPVEEARKYVEVLYTATLGPYTAEKWAAGVLKAAEASGAKAVVAPSSRQSRAYLGRVAYALRAGLLEDTLESRVEGGEVHATRYAYLNRVTQRVKAALPVVLTVKPNTTPLAEPLPGEAEAVALSVPEVPTVEVLERLQEEKKGVS”, for which the protein production entry is recorded as “failed”. To “PPKIRVVVRKRPISKKERERGDDDVVDVLAKNNTVVVNEEKVKVDLTKYLEKHAFKFDESLDENVSNEAVYQLTVGPLVRTLFRNGRASCFAYGQTGSGKTYTMSPLPIRASADIFTFMAQQQYRDISLCVSCFEIYGNKVFDLLNARKKLNILEDGKKKVVVVGLKEFGVDDVDGVKALIEESAKNRSTGSTAANADSSRSHSIMQFALKRAA” belongs “failed”; to “PPLPLVYERIMLKGKGAMHSSTGLAIPASEIIDVMPPELLRFLIARVNPSRHIDFDP”, “failed”.

Consider “PQKKVIVLVHGLASSPEAWIALTNDIMGDNILREHYQVWQVFYSTNMPILESRFQIYALLKQAFDSLNPNDPADHNAVLIGHSMGGIISRLLVSQADISQKAFSLVSPYQQAQLKKQPMVYQRLKIQPIPNFDRAIFMSAPHHGTDFADLWFTRAARKIIKLPGAFLGAITDTVTNENIDAKDLLLRIDQGLIQNGPSDLSYKSKFIELTKNINPPSGFVFHSIIGNNTKSDDPEKITDGIVPYKSAHLEGSASEKIIQGGHSIQETPQAVLELRRILRLHLKEHQ”, for which the protein production result is “failed”.

“PRFLFVHGWGFDRNFWEPVRRAIGQHNGDSLDFGYFGQSKLEYDWSQPFIAVGHSLGFLWLLQQPLAACIQLISINGFSRFFAGSDWPFGVPQRVTKRMQLALHRDAKKTLDQFYETVGFFDTSEKRYDLAALDNGLEFLMTQDNRSIAKKQAHKIAIMASDQDPIVPVSLTKACFPTPTPILWNKDGGHLLPITDPDSCANFIRDVVK”: the protein production entry is “failed”. Regarding “PRTVKELTVSAGDNLIITLPDNEVELKAFVAPAPPVETTYNYEWNLISHPTDYQGEIKQGHKQTLNLSQLSVGLYVFKVTVSSENAFGEGFVNVTVKPAR”, the protein production result is on record as “not failed”. Take “PVVVSEAGASVYSASEAAAREFPDMDVSLRGAVSIARRLQDPLAELVKIDPKAIGVGQYQHDVNQTALAKTLDAVVEDAVNAVGVDLNTASVPLLARVAGVSPTIAENIVHYRDEHGAFVNRTALKKVPRLGPKAFEQCAGFLRISGGKDPLDASAVHPEAYPVVRKMSEATGLSVEKLIGNSHVLSSLRPSDFA”: the protein production result is reported as “failed”.

On to “QDISQRKKEQEALAESESRFQELADLLPQPVFELDMKGNIIYTNSLGFQAFGYTKDDLEKGVSSLALFVPEDRETVLQNIENRLKNIPFENHEYTALRKDGTTFPILIYTARINRGGVPVGIRGIVLDITDRKQAEENLVQLNQNLELRVEERTRELEVTHQQMILQEKLASIGQLAAGIAHELNNPINFVRINFATLQEDVSDLHTLLKEYRLVTEKLEDR”, for which the protein production entry was “failed”.

Regarding “QDSDSTAAVAVLKRAVELDAESRYQQALVCYQEGIDMLLQVLKGTKESSKRCVLRTKISGYMDRAENIKKYLDQEKEDGK”, the protein production result is reported as “not failed”.

As to “QDVPVTQVMTPRPVVFRVDATMTINEFLDKHKDTPFSRPLVYSEQKDNIIGFVHRLELFKMQQSGSGQKQLGAVMRPIQVVLNNTALPKVFDQMMTHRLQLALVVDEYGTVLGLVTLEDIFEHLVGE”, the protein production entry is “not failed”. Then “QEGIISLDTEGRVVLMNPKAEEMTGRSQNESCGLPIEDVFILWSPLQDKNQLVAINQCLAEGRHTLLPEGSQLLSSQGERQEIRCSASPIRDRDNLLTGAVVVFQDVTRARHEQRELQYQANHDMLTGLINRRRLEERLNQAISQLGQDEQHILCYVDLDYFKDVNDSAG”, with “failed”. To “QEIRPMPADSAYGVVHISVCNMRDEGKFTSGMSTQALLGMPVKVLQYTGWYEIQTPDDYTGWVHRMVITPMSKEKYDEWNRAEKIVVTSHYGFTYEKPDDDSQTVSDVVAGNRLKWEGSKGHFYKVSYPDGRQAYISRHISQPESKWRASLKQDAESIIKTAYTMIGIPYLWAGTSSKGVDCSGLVRTVLFMHDIIIPRDASQQAYVGERIEIAPDFSNVQRGDLVFFGRKATADRKEGISHVGIYLGNKRFIHALGDVHISSFDPEDECYDEFNTGRLLFATRFLPYINKEKGMNTTDHNLYYLHH” belongs “not failed”; to “QELKGKYMKTPTGYLMVLRHGDNVLQNLEQLARDEHIPSASFVGIGFMSEATFGFYDFGRKQFDPKTYRNVEMANMTGSIAWKEGKPSIHAHGTVTDGTFQGAGGHLLGLTVGTGSCEITVTVYPQRLDRFVDPEIQANVLGLPQQ”, “not failed”. To “QEVSWTQYTQRKFQKSRQPRPSSQYNQRLFGGDMEKFIQSSGQPVPLVVESCIRFINLNGLQHEGIFRVSGAQLRVSEIRDAFERGEDPLVEGCTAHDLDSVAGVLKLYFRSLEPPLFPPDLFGELLASSELEDTAERVEHVSRLLWRLPAPVLVVLRYLFTFLNHLAQYSDENMMDPYNLAVCFGPTLLPVPAGQDPVALQGRVNQLVQTLIVQPDRVFPPLTSLPGPVYE” belongs “failed”; to “QGPVGTRIRLALGQDVEAANALMATTGDGVRIIPVLATAIEDGSASSAMLAGLGGIGTNAYHEAASHTFTDRPMNEALTTVSLTLVAADEEDRIVGVLSATAPGTLIDMAMSNGFTAEKAMALSLFVAKIHGLAVAEHARGQGIAAALLKRTWQVYQQLGYMLLYGSYEADRDLAAFYTRSGYTVHAPG”, “failed”; to “QIDFQVLHDLRQKFPEVPEVVVSRCMLQNNNNLDACCAVLSQESTRYLYGEGDLNFSDDSGI”, “not failed”.

As to “QKGRVETRRVVHIMDFQRGKNLRYQLLQLVEPFGVISNHLILNKINEAFIEMATTEDAQAAVDYYTTTPALVFGKPVRVHLSQKYKRIK”, the protein production entry is listed as “not failed”. For “QKRAWITAPVALREGEDLSKKNPIAKIHSDLAEERGLKITYKYTGKGITEPPFGIFVFNKDTGELNVTSILDREETPFFLLTGYALDARGNNVEKPLELRIKVLDINDNEPVFTQD”, the protein production entry is recorded as “not failed”. Regarding “QLAEVEVKKFKQMTEAIGPSTIRDLAVAGPEMQVKLLQSLGLKSTLITDGSTPINLFNTAFGLLGMGPEGQPLGRRVASGPSPGEGISPQSAQAPQAPGDNHVVPVLR”, the protein production result is “failed”. In the case of “QLQDGKGEKVMVEYSSPNTNKPLHLGHLRNNFLGYSISQILKANGFDVIKANLVNDRGIHICKSMIAYQKSGLGETPVSTGMKGDHLVGKYYVAFDKQLKKEVEALVAAGVEEDKAKKEAPILKEAQAMLLKWEQGDKEVYDLWKTMNGWVYDGFNASYKKIGVTFDHFYYESNTYLLGKDIVEEGLAKGVFNKRADGSVWIDLTAEGLDEKLVLRSDGTSVYITQDLGTAELKYKDFGCKRSVYVVGNEQDYHFIVLIHILKKLGKPYANGVYHMSYGMVDLPSGKMKSREGTVVDADDLVDEMIATAKERTLEQGKTDGFSEEQATHLYETLGLGALKYFLLKVDPKKRMMFNPEESIDFQ”, the protein production result is recorded as “failed”. Then “QNRGSLSTARSYISMGVGRVYVMKDSPNDIELTMAEGVDVGRYVDYRELAIKIADNRIDVKKNKEIINSRFKLKYKNLSSIYN”, with “failed”. To “QNRIDMAMMRGRCGLWDWNMASGRVYWSRAMYEMLGYIPQDALLSISQITAIINPNDANFFDLAQELMSGKKKHIDINVPMRHADGHYVWMRIRAEVTDEEELHLVGIAFDIS” belongs “failed”; to “QNVLDLHGLHVDEALEHLMRVLEKKTEEFKQNGGKPYLSVITGRGNHSQGGVARIKPAVIKYLISHSFRFSEIKPGCLKVMLK”, “not failed”; to “QPTAQQQLTKPAKITCANCKKPLQKGQTAYQRKGSAHLFCSTTCLSSFS”, “not failed”.
